Results reported in publication PMC9706017, “Crystal Structure and Molecular Mechanism of Phosphotransbutyrylase from Clostridium acetobutylicum” (Journal of Microbiology and Biotechnology, 2021).

Biological target: the molecule itself
Assay: crystal structure; apo CaPTB with sulfate ions; crystals from 20% PEG3350, 0.2 M lithium sulfate, 0.1 M HEPES pH 7.5, 20°C; space group P21; 2.9 Å; eight molecules in the asymmetric unit

B1: phosphotransbutyrylase from Clostridium acetobutylicum (enzyme, UniProt P58255 1-301, looked up)
chain: MIKSFNEIIMKVKSKEMKKVAVAVAQDEPVLEAVRDAKKNGIADAILVGDHDEIVSIALKIGMDVNDFEIVNEPNVKKAALKAVELVSTGKADMVMKGLVNTATFLRSVLNKEVGLRTGKTMSHVAVFETEKFDRLLFLTDVAFNTYPELKEKIDIVNNSVKVAHAIGIENPKVAPICAVEVINPKMPSTLDAAMLSKMSDRGQIKGCVVDGPLALDIALSEEAAHHKGVTGEVAGKADIFLMPNIETGNVMYKTLTYTTDSKNGGILVGTSAPVVLTSRADSHETKMNSIALAALVAGNK
notes: phosphotransbutyrylase (phosphate butyryltransferase, PTB) of Clostridium acetobutylicum; Octamer (four dimers) in the crystal and by size-exclusion chromatography; Removal of the tag is not mentioned; also called CaPTB; PTB; source: E. coli BL21(DE3)-T1R, purified (Ni-NTA agarose, Superdex200 size exclusion)
  stoichiometry N: 8
